In the supplement of paper PMC9170038:

System: MS2 coat protein
Experiment: apparent KD of MS2 coat protein; designed switch direction (-1 OFF switch, 1 ON switch): -1; higher = weaker reporter binding
Summary of the method: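 The buffer was Tris-HCl pH 7.5 with KCl, MgCl2, BSA, DTT, tRNA and Tween-20. In it, SNAP-549-labelled MS2 coat protein was titrated in doubling steps from 0.7 or 1.5 nM to 3 µM over chip-bound RNA switches transcribed by stalled E. coli RNA polymerase on Illumina chips. Apparent KD is the per-design median over clusters of curve fits to normalised fluorescence.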

[1] = input ligand: microRNA oligo, concentration not stated
[2] = Eterna round: R95, input ligand: microRNA oligo, concentration not stated

Sequence	apparent KD of MS2 coat protein (input ligand: FMN 200 uM)	apparent KD of MS2 coat protein (input ligand: none)	apparent KD of MS2 coat protein [1]	apparent KD of MS2 coat protein [2]	apparent KD of MS2 coat protein (Eterna round: R95, input ligand: FMN 200 uM)	apparent KD of MS2 coat protein (Eterna round: R95, input ligand: none)
UUAUUGGUUGUGAGGAUAUCGGAUAGAUAGAUAUUCGAGAAGGCACAUGAGGAUCACCCAUGUGUGAUUAGAAA [JR_BMEx4_Sub048] (Eterna round: R97, puzzle: Brourd's mod of Exclusion 4)	193 nM	25.9 nM				
UUAUUGUGUGUAGGAUAUGCGUGUUAUUAUUAUGCAGAAGGACAUGAGGAUCACCCAUGUGUAUUGUUAUUAUAUAUUAUAUAU [Title] (Eterna round: R96, puzzle: Exclusion NG 1)	48.2 nM	27 nM	21.2 nM			
UUCAGGAGUCGAGGAUAUUUGCAGACGACAUGAGGAUCACCCAUGUGGUUAGCAUAGUCUUCAGCAGAGAAGGCGACCAACGAG [Eternabot solution 20] (Eterna round: R96, puzzle: Exclusion NG 2)	171 nM	40.3 nM	40 nM			
UUCAUGUGAGGAUAUGUGUACUGUUUUUUGUUUAGAUGUACACAGAAGGCACAUGAGGAUCACCCAUGUAGUAC [Ex4 - 3 - 32] (puzzle: Exclusion 4)				30 nM		
UUCCUACUUGAGGAUCACCCAAGUCAGGAUAUCCAUAACCGACACUCUUUUCGGAGCGGGAGAAGGGACUUGGC [Arbedi] (Eterna round: R97, puzzle: Exclusion 1)	119 nM	52.9 nM				
UUCCUCAGCUAGGAUAUCAAGGCACCACCCUAAUGAGAAGGAGCAACAUGAGGAUCACCCAUGUGGGUUUCUUA [Aterre] (Eterna round: R97, puzzle: Exclusion 6)	143 nM	54.9 nM				
UUCCUCGUUGUGAGGAUAUCGUCCGUGUUUUGUUACGAGAAGGCACAUGAGGAUCACCCAUGUUACUUGAUGUU [JR_BMOE4_Sub073] (Eterna round: R96, puzzle: Brourd's mod of Exclusion 4)	150 nM	23.3 nM	19 nM			
UUCCUCGUUGUGAGGAUAUCGUCCGUGUUUUGUUACGAGAAGGCACAUGAGGAUCACCCAUGUUACUUGAUGUU [JR_BMOE4_Sub073] (puzzle: Brourd's mod of Exclusion 4)				18.9 nM		
UUCGUGCAGCUUUGCUGUACGAGUACAUGAGGAUCACCCAUGUAGGAUAUGGUACGCUUUGCGUGCUAGAAGGAUAUGUGUAGC [salish99_ExNG3_r04_504] (Eterna round: R96, puzzle: Exclusion NG 3)			25.7 nM			
UUCGUGCAGCUUUGCUGUACGCGUACAUGAGGAUCACCCAUGUAGGAUAUGGUACGCAAAGCGUGCUAGAAGGAUAUGGAGAGG [Mat - Exclusion NG 3 - Mod of JL - D81] (Eterna round: R96, puzzle: Exclusion NG 3)	11.7 nM	13.1 nM	8.08 nM			
UUCUUAUAUGAAGGAUAUACUUAACAUGAGGAUCACCCAUGUGGUGUUGUGAGUGAGUGAGUUUAGUAGAAGGUCAAUUCUUUU [JMF's solution 95] (Eterna round: R96, puzzle: Exclusion NG 2)	818 nM	355 nM	326 nM			
UUCUUGGCAGGAUAUGCUCUUUUAGACAUGAGGAUCACCCAUGUGUUUAUUCUUUUUUUUGCAGAAGGGCCUUAAU [JR_E5_Sub044] (Eterna round: R96, puzzle: Exclusion 5)	176 nM	98.1 nM	68.6 nM			
UUCUUGGCAGGAUAUGCUCUUUUAGACAUGAGGAUCACCCAUGUGUUUAUUCUUUUUUUUGCAGAAGGGCCUUAAU [JR_E5_Sub044] (puzzle: Exclusion 5)				87.9 nM		
UUGAAUUAUAAGGAUAUGGGAGUCGAUAGACACCCAGAAGGUAUAACAUGAGGAUCACCCAUGUGUCCUAUCAA [Mod of Eli 25 - Jieux - Exclusion 6] (Eterna round: R97, puzzle: Exclusion 6)	33.6 nM	18.2 nM				
UUGACUGGCGAGGAUAUCUCGCAAUAGUUAGGGAGAGAAGGUGCUACAUGAGGAUCACCCAUGUCAAACGAACC [Eternabot (L1) Solution 58] (Eterna round: R97, puzzle: Exclusion 6)	17.7 nM	21.9 nM				
UUGAGCAGACGGAGAUCCAACAUGAGGAUCACCCAUGUCUCAAAAGCUUUUUGCUCAUCUUAUCGUACCUUGGUGCU [Mat - Sensor v3 - turn-off var 1 - JL Mod - D15] (puzzle: Sensor v3, turn-off variant 1)				9.75 nM	155 nM	302 nM
UUGAGGUAAGGAUAUAUUAGGAGCGAAGUUACUUGUUUUUUAUAGAAGGUACAUGAGGAUCACCCAUGUGAAUA [JR_Exclu4_Sub062] (puzzle: Exclusion 4)				24.7 nM		
UUGAUGUGAGGAUAUAUUUAGUGUUUUCUUUAUGUUUUAUAACUUGAGGAUCACCCAAGUAGAAGGCGCUACGU [JR_Ex2_Sub066] (Eterna round: R97, puzzle: Exclusion 2)	19 nM	13.9 nM				
UUGCAGUCGUCAGGAUAUAGUAUUACGGCCAUUUUUUUUUUCAUACAUGAGGAUCACCCAUGUCGCUAGAAGGGAUUAUCGAUU [salish99_ExNG2_r04_103] (Eterna round: R96, puzzle: Exclusion NG 2)	71 nM	67 nM	57.1 nM			
UUGUACAUAGGAUAUAGUUGUUUGUACAUGAGGAUCACCCAUGUUAUGUAUGUUUUGCUUCUAGAAGGAUGUUGUU [JR_E5_Sub004] (Eterna round: R96, puzzle: Exclusion 5)	28.5 nM	34.5 nM	25.8 nM			
UUGUACAUAGGAUAUAGUUGUUUGUACAUGAGGAUCACCCAUGUUAUGUAUGUUUUGCUUCUAGAAGGAUGUUGUU [JR_E5_Sub004] (puzzle: Exclusion 5)				28 nM		
UUGUGCACGCUGCGGUCCUACAUGAGGAUCACCCAUGUGGUCUGGUGGCGUGGGUCACCGGACUUGGCUCGUCUUGU [salish99_S_TOV1_R5_060] (Eterna round: R97, puzzle: Sensor, turn-off variant 1)	36.2 nM	42.3 nM				
UUGUUACAUGAGGAUCACCCAUGUGAGGAUAUGGUUCAGUACUGUCAUGUCAAGUACUCCAGAAGGCACAUGUU [1st #30] (Eterna round: R97, puzzle: Exclusion 1)	566 nM	508 nM				
